Earlier results in publication PMC3629029.

Biological target: calreticulin (Homo sapiens) (UniProt P27797)
Assay: SPR

Sequence of UniProt P27797 (P27797 18-417): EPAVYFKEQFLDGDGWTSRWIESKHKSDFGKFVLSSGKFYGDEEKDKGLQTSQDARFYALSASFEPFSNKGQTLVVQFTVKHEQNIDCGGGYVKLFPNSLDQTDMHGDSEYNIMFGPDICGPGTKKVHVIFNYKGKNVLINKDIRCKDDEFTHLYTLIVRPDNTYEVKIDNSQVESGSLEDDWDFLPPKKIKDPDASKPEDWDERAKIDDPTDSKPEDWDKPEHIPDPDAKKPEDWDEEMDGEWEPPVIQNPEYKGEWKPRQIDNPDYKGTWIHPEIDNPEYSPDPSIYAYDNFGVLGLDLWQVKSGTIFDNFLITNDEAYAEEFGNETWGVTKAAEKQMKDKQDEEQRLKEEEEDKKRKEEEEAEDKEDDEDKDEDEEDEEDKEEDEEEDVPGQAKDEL

Kd: 16 µM
Substance: PDIR (from UniProt Q14554)
